According to the Human Domainome abundance scans (Beltran et al. 2025):
± gives the uncertainty stated by the source.

B1: WW domain-binding protein 4, residues 8 to 43; numbered along this chain, O75554 (parent)
chain: QPKKFCDYCKCWIADNRPSVEFHERGKNHKENVAKR

Variants of: B1
Assay: abundance fitness (aPCA) (normalised: wild type 0, dead -1); higher = more abundant; growth selection in yeast, the domain comes from the species named
Settings: Homo sapiens

Row | Variant | abundance fitness
1 | N32P | -0.473 ± 0.32
2 | C6P | -0.466 ± 0.084
3 | V20I | -0.275 ± 0.2
4 | Y8L | -0.26 ± 0.1
5 | H29V | -0.349 ± 0.12
6 | S19H | -0.269 ± 0.29
7 | K10N | -0.149 ± 0.16
8 | V33D | -0.22 ± 0.098
9 | K3F | -0.881 ± 0.29
10 | A14E | -0.048 ± 0.098
11 | R25M | 0.079 ± 0.086
12 | H29Y | -0.736 ± 0.18
13 | D7W | -0.649 ± 0.12
14 | N32V | -0.294 ± 0.075
15 | K10S | -0.151 ± 0.079
16 | P18S | -0.192 ± 0.086
17 | G26E | 0.153 ± 0.1
18 | R17K | -0.098 ± 0.15
19 | K10M | -0.34 ± 0.25
20 | Q1M | -0.242 ± 0.075
21 | H23M | -0.569 ± 0.17
22 | K10C | -0.325 ± 0.092
23 | C11P | -0.475 ± 0.12
24 | I13C | -0.427 ± 0.074

Row | Variant | abundance fitness
25 | Y8D | 0.129 ± 0.15
26 | E24K | -0.187 ± 0.14
27 | V20T | -0.183 ± 0.12
28 | K27G | -0.096 ± 0.057
29 | H23P | -0.443 ± 0.11
30 | N16W | -0.268 ± 0.065
31 | N16P | 0.018 ± 0.078
32 | R17D | 0.068 ± 0.096
33 | E31T | -0.259 ± 0.12
34 | C11H | -0.335 ± 0.27
35 | P2V | 0.06 ± 0.066
36 | H29R | -0.626 ± 0.084
37 | V33Q | -0.195 ± 0.12
38 | D15S | -0.236 ± 0.074
39 | N16F | -0.143 ± 0.36
40 | H23W | -0.601 ± 0.12
41 | K3H | -0.569 ± 0.19
42 | E24T | -0.549 ± 0.21
43 | V20D | -0.591 ± 0.17
44 | K3A | -0.194 ± 0.062
45 | W12G | -0.331 ± 0.06
46 | R25L | -0.106 ± 0.066
47 | N32C | -0.158 ± 0.1
48 | P2K | 0.294 ± 0.16

Row | Variant | abundance fitness
49 | V20S | -0.336 ± 0.081
50 | D15M | -0.128 ± 0.17
51 | R25A | 0.078 ± 0.064
52 | K3S | -0.102 ± 0.07
53 | D15T | -0.075 ± 0.096
54 | N28L | 0.046 ± 0.084
55 | V20E | -0.127 ± 0.065
56 | V20A | 0.05 ± 0.069
57 | E31Q | -0.072 ± 0.14
58 | C6W | -1 ± 0.13
59 | F5K | -0.502 ± 0.09
60 | Y8C | -0.269 ± 0.12
61 | K27A | 0.026 ± 0.069
62 | F5G | -0.786 ± 0.066
63 | I13K | -0.853 ± 0.12
64 | W12S | -0.261 ± 0.081
65 | R17G | 0.005 ± 0.061
66 | C11W | -0.589 ± 0.12
67 | P18F | -0.431 ± 0.46
68 | K4S | -0.212 ± 0.092
69 | K3W | -0.997 ± 0.1
70 | R25D | 0.099 ± 0.095
71 | S19C | -0.516 ± 0.12
72 | Q1W | -1.47 ± 0.32

Row | Variant | abundance fitness
73 | R36E | 0.245 ± 0.094
74 | K30D | -0.265 ± 0.12
75 | C9T | -0.635 ± 0.16
76 | E31P | -0.332 ± 0.087
77 | K3M | 0.074 ± 0.087
78 | H23E | -0.6 ± 0.15
79 | K27E | 0.036 ± 0.073
80 | N28P | -0.047 ± 0.11
81 | C11L | -0.045 ± 0.078
82 | K4D | -0.573 ± 0.15
83 | C6T | -0.521 ± 0.085
84 | E21M | -0.332 ± 0.11
85 | C6S | -0.615 ± 0.077
86 | E21C | -0.36 ± 0.094
87 | C9W | -1.2 ± 0.12
88 | S19F | -0.797 ± 0.27
89 | H23T | -0.717 ± 0.11
90 | K3P | -0.119 ± 0.076
91 | H23F | -0.633 ± 0.4
92 | K35V | -0.129 ± 0.078
93 | H29E | -0.325 ± 0.11
94 | C6E | -0.546 ± 0.079
95 | H23G | -0.689 ± 0.063
96 | H23V | -0.895 ± 0.094

Row | Variant | abundance fitness
97 | Y8V | -0.249 ± 0.074
98 | N28F | 0.106 ± 0.092
99 | Y8P | 0.343 ± 0.096
100 | C6V | -0.756 ± 0.083
101 | N32L | -0.166 ± 0.087
102 | R36G | 0.16 ± 0.065
103 | E24M | -0.451 ± 0.15
104 | H29Q | -0.656 ± 0.14
105 | K3C | -1.59 ± 0.17
106 | K30L | -0.061 ± 0.061
107 | W12D | -0.219 ± 0.079
108 | K27L | -0.114 ± 0.061
109 | K27W | -0.218 ± 0.064
110 | Q1I | 0.404 ± 0.17
111 | E31S | -0.326 ± 0.13
112 | I13N | -0.308 ± 0.16
113 | A34F | -0.385 ± 0.13
114 | K10F | -0.409 ± 0.21
115 | N28V | -0.016 ± 0.088
116 | N16R | -0.141 ± 0.061
117 | V20L | -0.314 ± 0.069
118 | A14W | -0.338 ± 0.076
119 | P18D | -0.388 ± 0.27
120 | N16A | 0.135 ± 0.064

Row | Variant | abundance fitness
121 | K30E | 0.053 ± 0.07
122 | Y8G | -0.224 ± 0.06
123 | D7Q | -0.113 ± 0.097
124 | C11V | 0.066 ± 0.068
125 | P18I | -0.349 ± 0.12
126 | I13G | -0.449 ± 0.071
127 | K4T | -0.022 ± 0.18
128 | P18C | -0.113 ± 0.086
129 | N28R | 0.149 ± 0.062
130 | A34R | -0.11 ± 0.061
131 | S19M | -0.07 ± 0.1
132 | G26W | -0.277 ± 0.068
133 | W12M | 0.075 ± 0.11
134 | F22Y | -0.224 ± 0.12
135 | D15L | -0.332 ± 0.08
136 | F5R | -0.465 ± 0.068
137 | K3R | 0.013 ± 0.062
138 | I13M | 0.209 ± 0.082
139 | P2G | 0.136 ± 0.06
140 | C11F | -0.417 ± 0.14
141 | C9Q | -0.701 ± 0.12
142 | C11K | -0.066 ± 0.099
143 | A34C | -0.135 ± 0.1
144 | F22R | -0.075 ± 0.064

Row | Variant | abundance fitness
145 | K10Q | -0.146 ± 0.1
146 | F5E | -0.356 ± 0.072
147 | F22A | 0.09 ± 0.08
148 | C9K | -0.983 ± 0.34
149 | R36P | 0.211 ± 0.15
150 | K35E | -0.099 ± 0.095
151 | A14L | -0.558 ± 0.074
152 | W12I | 0.139 ± 0.15
153 | R17W | -0.389 ± 0.074
154 | E24D | -0.372 ± 0.15
155 | R36C | 0.005 ± 0.14
156 | N16T | 0.185 ± 0.067
157 | P2A | 0.007 ± 0.075
158 | I13Y | 0.334 ± 0.19
159 | C11D | 0.144 ± 0.16
160 | H23R | -0.724 ± 0.061
161 | K35T | -0.043 ± 0.093
162 | G26Q | 0.038 ± 0.085
163 | R36M | -0.267 ± 0.2
164 | N32W | -0.115 ± 0.079
165 | D7Y | -0.286 ± 0.33
166 | K4F | -0.177 ± 0.16
167 | I13R | -0.532 ± 0.077
168 | N32R | -0.1 ± 0.084

Row | Variant | abundance fitness
169 | Y8R | -0.12 ± 0.062
170 | N16H | -0.105 ± 0.091
171 | W12P | 0.188 ± 0.22
172 | K10E | -0.134 ± 0.097
173 | V20W | -0.189 ± 0.077
174 | E21W | -0.295 ± 0.07
175 | E21T | -0.034 ± 0.085
176 | W12R | -0.537 ± 0.064
177 | C6K | -0.216 ± 0.26
178 | D15F | -0.235 ± 0.11
179 | G26L | -0.28 ± 0.079
180 | K35A | 0.216 ± 0.093
181 | D7M | -0.241 ± 0.37
182 | N28S | -0.001 ± 0.17
183 | R25V | 0.003 ± 0.073
184 | D7V | -0.6 ± 0.1
185 | D15Q | -0.262 ± 0.27
186 | D7K | -0.272 ± 0.16
187 | P18M | -0.002 ± 0.073
188 | P18N | -0.177 ± 0.1
189 | Y8W | -0.118 ± 0.079
190 | V20N | -0.033 ± 0.17
